# T1: E(Edans)-AAHisAAK-(Dabsyl)-NH2 (not fully specified)
# T1 chain: AAHAAK
# Molecular target: T1, E(Edans)-AAHisAAK-(Dabsyl)-NH2
protein,measurement,value
aspergillopepsin II (An01g00530) (protein) EDYSSNWAGAVLIGDGYTKVTGEFTVPSVSAGSSSSSGYGGGYGYYKNKRQSEEYCASAWVGIDGDTCETAILQTGVDFCYEDGQTSYDAWYEWYPDYAYDFNDITISEGDTIKVTVEATSKSSGSATVENLTTGQSVTHTFSGNVEGDLCETNAEWIVEDFESGDSLVAFADFGSVTFTNAEATSDGSTVGPSDATVMDIEQDGTVLTETSVSGDSVTVTYV,enzyme activity in relative fluorescent units (rfu) per minute per mg of protein; cleavage of FRET peptide substrates at pH 4,yields the highest rfu value for aspergillopepsin II
